Reference: paper PMC12441119 (2025)

B1: STK4 (residues 1–326) K59R [human] / HOIP (residues 854–1072) [not stated] (parent complex)
chain 1: METVQLRNPPRRQLKKLDEDSLTKQPEEVFDVLEKLGEGSYGSVYKAIHKETGQIVAIRQVPVESDLQEIIKEISIMQQCDSPHVVKYYGSYFKNTDLWIVMEYCGAGSVSDIIRLRNKTLTEDEIATILQSTLKGLEYLHFMRKIHRDIKAGNILLNTEGHAKLADFGVAGQLTDTMAKRNTVIGTPFWMAPEVIQEIGYNCVADIWSLGITAIEMAEGKPPYADIHPMRAIFMIPTNPPPTFRKPELWSDNFTDFVKQCLVKSPEQRATATQLLQHPFVRSAKGVSILRDLINEAMDVKLKRQESQQREVDQDDEENSEEDEMD
chain 2: EYQAQGLAMYLQENGIDCPKCKFSYALARGGCMHFHCTQCRHQFCSGCYNAFYAKNKCPEPNCRVKKSLHGHHPRDCLFYLRDWTALRLQKLLQDNNVMFNTEPPAGARAVPGGGCRVIEQKEVPNGLRDEACGKETPAGYAGLCQAHYKEYLVSLINAHSLDPATLYEVEELETATERYLHVRPQPLAGEDPPAYQARLLQKLTEEVPLGQSIPRRRK

Variants of: B1
Test: ITC

Row | Kd [µM] | Variant
1 | 97.9 | chain 1 R231E
